Literature values, collected in paper PMC12114883.

Target: CLV1 (Arabidopsis thaliana) (UniProt Q9SYQ8)
Sequence of UniProt Q9SYQ8 (Q9SYQ8 25-638): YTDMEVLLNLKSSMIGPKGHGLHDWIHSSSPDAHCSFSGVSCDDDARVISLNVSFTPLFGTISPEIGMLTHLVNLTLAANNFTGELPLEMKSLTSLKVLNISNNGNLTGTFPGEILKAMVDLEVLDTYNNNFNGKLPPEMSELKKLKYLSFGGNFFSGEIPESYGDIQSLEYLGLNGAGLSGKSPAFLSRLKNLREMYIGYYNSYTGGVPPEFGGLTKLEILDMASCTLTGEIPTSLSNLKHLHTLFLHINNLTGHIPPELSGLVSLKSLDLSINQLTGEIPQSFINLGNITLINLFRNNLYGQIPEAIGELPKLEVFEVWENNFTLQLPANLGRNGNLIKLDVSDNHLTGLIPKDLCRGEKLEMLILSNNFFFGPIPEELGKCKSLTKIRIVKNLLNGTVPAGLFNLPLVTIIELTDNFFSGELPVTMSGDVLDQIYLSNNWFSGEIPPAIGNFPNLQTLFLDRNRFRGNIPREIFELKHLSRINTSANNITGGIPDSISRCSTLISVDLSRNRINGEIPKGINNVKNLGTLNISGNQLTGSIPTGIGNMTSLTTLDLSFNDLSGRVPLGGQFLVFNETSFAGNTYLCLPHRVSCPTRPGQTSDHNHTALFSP

Kd: 17.5 nM
Substance: CLV3 (from UniProt Q9XF04)
